As usually defined, the Kd is the equilibrium constant for the complex coming apart. The low end stands for higher affinity, the high end for lower affinity.

The text below walks through data of paper PMC7809502.

Assay [1] has as its target genome-edited CXCL12-HiBiT (human (endogenous in HEK293)) (UniProt P48061). Briefly: split reporter (BiFC, NanoBiT); NLuc complementation luminescence: supernatants from HEK293 cells expressing genome-edited CXCL12-HiBiT incubated with increasing concentrations of purified LgBiT; with surfen (10 uM). (HiBiT is a short tag that completes a luciferase, so light tracks the accessible tagged protein.)

The target is the same in assay [2]. Description: split reporter (BiFC, NanoBiT); NLuc complementation luminescence: live HEK293 cells expressing genome-edited CXCL12-HiBiT incubated with increasing concentrations of purified LgBiT; vehicle.
The target in assay [3] is purified HiBiT. Description: split reporter (BiFC, NanoBiT); NLuc complementation luminescence: purified HiBiT (1 nM) incubated with increasing concentrations of purified LgBiT; vehicle.
In assay [4] the target is genome-edited CXCL12-HiBiT (human (endogenous in HEK293)) (UniProt P48061). Briefly: split reporter (BiFC, NanoBiT); NLuc complementation luminescence: supernatants from HEK293 cells expressing genome-edited CXCL12-HiBiT incubated with increasing concentrations of purified LgBiT; with heparan sulfate (30 ug/mL).
For assay [5] the target is unchanged. Description: split reporter (BiFC, NanoBiT); NLuc complementation luminescence: supernatants from HEK293 cells expressing genome-edited CXCL12-HiBiT incubated with increasing concentrations of purified LgBiT; vehicle.
Assay [6] shares this target. Briefly: split reporter (BiFC, NanoBiT); NLuc complementation luminescence: live HEK293 cells expressing genome-edited CXCL12-HiBiT incubated with increasing concentrations of purified LgBiT; with surfen (10 uM).

Consider LgBiT (18 kDa NLuc fragment), for which the Kd worked out at 7.46 nM in assay [1]; 11.6 nM in assay [2]; 7.15 nM in assay [3]; 16.1 nM in assay [4]; 17.5 nM in assay [5]; 5.93 nM in assay [6].
